We go through 46 sequences from the supplement of paper PMC11780869.

This data set has as its system Bacillus subtilis. The data set is described as follows: cleaved RNA product abundance (RNA/gDNA barcode ratio) relative to median wild-type variant (ratio to wild type); higher = more accumulation of the downstream cleavage product. To be noted: experiment (reporter, strain, medium): exp 8a: truncated aprE reporter, strain BJT201 with 2% xylose (RNase J1 expressed); cleavage site: glnRA (positions -5 to +31 mutated). An outline of the steps:
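Cleaved product abundance is expressed as the RNA:gDNA barcode ratio per construct, scaled to the median construct carrying the unmutated site. The constructs were barcoded, mutagenized RNase Y cleavage-site windows in truncated aprE or tetM reporter mRNAs integrated into the B. subtilis chromosome. Cultures grew in LB at 37°C from OD600 0.0003 to 0.3 before cleaved RNA was gel-selected and barcode-sequenced.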
Take “CGACATGTCCCGCTTCTTTCATTAATCCGTTAGCAACTGTTTTGCTATATACAACTACCTTTTAAGAGGAGGAAT”: the “cleaved RNA product abundance” value was 1.12. For “CGACATGTCCCGCTTCTTTCATTAATCCGTTAGCAACTGTTTTGCTATATACAATAACCTTTTAAGAGGAGGAAT” the value was 0.855. For “CGACATGTCCCGCTTCTTTCATTAATCCGTTAGCAACTGTTTTGCTATATACAATTAACTTTTAAGAGGAGGAAT” the value was 2.58; for “CGACATGTCCCGCTTCTTTCATTAATCCGTTAGCAACTGTTTTGCTATATACAATTACCTTTTAAGAGGAGGAAT”, 0.983. For “CGACATGTCCCGCTTCTTTCATTAATCCGTTAGCAACTGTTTTGCTATATACAATTATCTTTTAAGAGGAGGAAT” the value was 0.873; for “CGACATGTCCCGCTTCTTTCATTAATCCGTTAGCAACTGTTTTGCTATATACAATTGCCTTTTAAGAGGAGGAAT”, 0.532; for “CGACATGTCCCGCTTCTTTCATTAATCCGTTAGCAACTGTTTTGCTATATACAATTTACCTTTTAAGAGGAGGAA”, 1.39.

With “CGACATGTCCCGCTTCTTTCATTAATCCGTTAGCAACTGTTTTGCTATATACACGTACCTTTTAAGAGGAGGAAT”, the “cleaved RNA product abundance” value was 0.835. The same measure for “CGACATGTCCCGCTTCTTTCATTAATCCGTTAGCAACTGTTTTGCTATATACACTTAACTTTTAAGAGGAGGAAT”: 0.785; for “CGACATGTCCCGCTTCTTTCATTAATCCGTTAGCAACTGTTTTGCTATATACACTTACCTTTTAAGAGGAGGAAT”: 0.964; for “CGACATGTCCCGCTTCTTTCATTAATCCGTTAGCAACTGTTTTGCTATATACACTTATCTTTTAAGAGGAGGAAT”: 0.672. For “CGACATGTCCCGCTTCTTTCATTAATCCGTTAGCAACTGTTTTGCTATATACAGTTACCTTTTAAGAGGAGGAAT” the value was 0.464; for “CGACATGTCCCGCTTCTTTCATTAATCCGTTAGCAACTGTTTTGCTATATACAGTTACGTTTTAAGAGGAGGAAT”, 0.192; for “CGACATGTCCCGCTTCTTTCATTAATCCGTTAGCAACTGTTTTGCTATATACATATAACTTTTAAGAGGAGGAAT”, 1.73. In the case of “CGACATGTCCCGCTTCTTTCATTAATCCGTTAGCAACTGTTTTGCTATATACATATACATTTTAAGAGGAGGAAT”, the “cleaved RNA product abundance” value was 0.68. For “CGACATGTCCCGCTTCTTTCATTAATCCGTTAGCAACTGTTTTGCTATATACATATACCATTTAAGAGGAGGAAT” the value was 0.971. For “CGACATGTCCCGCTTCTTTCATTAATCCGTTAGCAACTGTTTTGCTATATACATATACCTTTTAAGAGGAGGAAT” the value was 1.04; for “CGACATGTCCCGCTTCTTTCATTAATCCGTTAGCAACTGTTTTGCTATATACATATACGTTTTAAGAGGAGGAAT”, 1.29; for “CGACATGTCCCGCTTCTTTCATTAATCCGTTAGCAACTGTTTTGCTATATACATATACTTTTTAAGAGGAGGAAT”, 0.975. Regarding “CGACATGTCCCGCTTCTTTCATTAATCCGTTAGCAACTGTTTTGCTATATACATATATCTTTTAAGAGGAGGAAT”, the “cleaved RNA product abundance” value came out at 1.06. For “CGACATGTCCCGCTTCTTTCATTAATCCGTTAGCAACTGTTTTGCTATATACATATTCCTTTTAAGAGGAGGAAT” the value was 0.511. Regarding “CGACATGTCCCGCTTCTTTCATTAATCCGTTAGCAACTGTTTTGCTATATACATCTACATTTTAAGAGGAGGAAT”, the “cleaved RNA product abundance” value was 1.27. The same measure for “CGACATGTCCCGCTTCTTTCATTAATCCGTTAGCAACTGTTTTGCTATATACATCTACCTTTTAAGAGGAGGAAT”: 0.867; for “CGACATGTCCCGCTTCTTTCATTAATCCGTTAGCAACTGTTTTGCTATATACATGTACCTTTTAAGAGGAGGAAT”: 0.738. The same measure for “CGACATGTCCCGCTTCTTTCATTAATCCGTTAGCAACTGTTTTGCTATATACATTAACCGTTTAAGAGGAGGAAT”: 0.934; for “CGACATGTCCCGCTTCTTTCATTAATCCGTTAGCAACTGTTTTGCTATATACATTAACCTTTTAAGAGGAGGAAT”: 1.37; for “CGACATGTCCCGCTTCTTTCATTAATCCGTTAGCAACTGTTTTGCTATATACATTAACTTTTTAAGAGGAGGAAT”: 1.71. The same measure for “CGACATGTCCCGCTTCTTTCATTAATCCGTTAGCAACTGTTTTGCTATATACATTAATCTTTTAAGAGGAGGAAT”: 1.54; for “CGACATGTCCCGCTTCTTTCATTAATCCGTTAGCAACTGTTTTGCTATATACATTACCCTTTTAAGAGGAGGAAT”: 0.597; for “CGACATGTCCCGCTTCTTTCATTAATCCGTTAGCAACTGTTTTGCTATATACATTAGCCTTTTAAGAGGAGGAAT”: 0.519. For the sequence “CGACATGTCCCGCTTCTTTCATTAATCCGTTAGCAACTGTTTTGCTATATACATTCACCTTTTAAGAGGAGGAAT”, the “cleaved RNA product abundance” value is 0.581. Turning to “CGACATGTCCCGCTTCTTTCATTAATCCGTTAGCAACTGTTTTGCTATATACATTGACCATTTAAGAGGAGGAAT”, the “cleaved RNA product abundance” value turned out to be 0.525.

In the case of “CGACATGTCCCGCTTCTTTCATTAATCCGTTAGCAACTGTTTTGCTATATACATTGACCTTTTAAGAGGAGGAAT”, the “cleaved RNA product abundance” value was determined as 0.989. The same measure for “CGACATGTCCCGCTTCTTTCATTAATCCGTTAGCAACTGTTTTGCTATATACATTTAACATTTAAGAGGAGGAAT”: 0.609. The same measure for “CGACATGTCCCGCTTCTTTCATTAATCCGTTAGCAACTGTTTTGCTATATACATTTAACGTTTAAGAGGAGGAAT”: 1.13; for “CGACATGTCCCGCTTCTTTCATTAATCCGTTAGCAACTGTTTTGCTATATACATTTAACTTTTAAGAGGAGGAAT”: 1.24. For “CGACATGTCCCGCTTCTTTCATTAATCCGTTAGCAACTGTTTTGCTATATACATTTACAATTTAAGAGGAGGAAT” the value was 1.08; for “CGACATGTCCCGCTTCTTTCATTAATCCGTTAGCAACTGTTTTGCTATATACATTTACATTTTAAGAGGAGGAAT”, 1.39; for “CGACATGTCCCGCTTCTTTCATTAATCCGTTAGCAACTGTTTTGCTATATACATTTACCATTTAAGAGGAGGAAT”, 1.03. On to “CGACATGTCCCGCTTCTTTCATTAATCCGTTAGCAACTGTTTTGCTATATACATTTACCCTTTAAGAGGAGGAAT”, for which the “cleaved RNA product abundance” value was found to be 0.763. For “CGACATGTCCCGCTTCTTTCATTAATCCGTTAGCAACTGTTTTGCTATATACATTTACCCTTTTAAGAGGAGGAA” the value was 0.756. As to “CGACATGTCCCGCTTCTTTCATTAATCCGTTAGCAACTGTTTTGCTATATACATTTACCGTTTAAGAGGAGGAAT”, the “cleaved RNA product abundance” value came to 0.948. The same measure for “CGACATGTCCCGCTTCTTTCATTAATCCGTTAGCAACTGTTTTGCTATATACATTTACGTTTTAAGAGGAGGAAT”: 1.12. Consider “CGACATGTCCCGCTTCTTTCATTAATCCGTTAGCAACTGTTTTGCTATATACATTTACTTTTTAAGAGGAGGAAT”, for which the “cleaved RNA product abundance” value worked out at 1.23.

“CGACATGTCCCGCTTCTTTCATTAATCCGTTAGCAACTGTTTTGCTATATACATTTAGCATTTAAGAGGAGGAAT”: the “cleaved RNA product abundance” value was determined as 0.755. The same measure for “CGACATGTCCCGCTTCTTTCATTAATCCGTTAGCAACTGTTTTGCTATATACATTTAGCTTTTAAGAGGAGGAAT”: 1.07.
